This note sets out measurements from patent publication US20190359653A1 (Genentech, published 2019).

Ends that are not written are not given here.

One assay concerns the target T1, hsFRP-3 (human, UniProt Q92765 33-325).
T1 construct: bought (R&D Systems); also called human sFRP3
T1 sequence (looked up): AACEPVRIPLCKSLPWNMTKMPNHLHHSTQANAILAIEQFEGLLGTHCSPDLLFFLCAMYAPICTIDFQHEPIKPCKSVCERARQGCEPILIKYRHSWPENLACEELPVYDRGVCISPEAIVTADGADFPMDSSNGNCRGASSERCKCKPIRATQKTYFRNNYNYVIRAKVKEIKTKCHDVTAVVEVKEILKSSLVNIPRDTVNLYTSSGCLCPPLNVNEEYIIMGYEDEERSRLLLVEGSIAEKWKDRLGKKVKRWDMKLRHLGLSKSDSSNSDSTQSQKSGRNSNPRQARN
Nature of the assay: fluorescence size-exclusion chromatography (FSEC). (In general: SEC sorts molecules by how far they enter the pores of the column.)

Another assay deals with T2, hsFRP-4 (human, UniProt Q6FHJ7 22-346, limits assumed).
T2 construct: bought (R&D Systems); also called human sFRP4
T2 sequence (looked up): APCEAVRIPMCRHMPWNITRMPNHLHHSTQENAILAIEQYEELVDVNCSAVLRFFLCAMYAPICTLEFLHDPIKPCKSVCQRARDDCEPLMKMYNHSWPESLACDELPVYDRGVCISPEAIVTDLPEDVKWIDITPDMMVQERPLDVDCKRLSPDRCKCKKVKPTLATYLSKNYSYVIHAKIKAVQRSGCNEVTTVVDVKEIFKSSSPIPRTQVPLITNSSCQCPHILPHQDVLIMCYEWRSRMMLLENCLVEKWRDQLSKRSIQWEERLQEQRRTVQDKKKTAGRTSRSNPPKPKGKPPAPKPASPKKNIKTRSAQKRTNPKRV
Kind of assay: fluorescence size-exclusion chromatography (FSEC).

Another assay deals with T3, hsFRP-5 (human, UniProt Q5T4F7 30-317).
T3 construct: bought (R&D Systems); also called human sFRP5
T3 sequence (looked up): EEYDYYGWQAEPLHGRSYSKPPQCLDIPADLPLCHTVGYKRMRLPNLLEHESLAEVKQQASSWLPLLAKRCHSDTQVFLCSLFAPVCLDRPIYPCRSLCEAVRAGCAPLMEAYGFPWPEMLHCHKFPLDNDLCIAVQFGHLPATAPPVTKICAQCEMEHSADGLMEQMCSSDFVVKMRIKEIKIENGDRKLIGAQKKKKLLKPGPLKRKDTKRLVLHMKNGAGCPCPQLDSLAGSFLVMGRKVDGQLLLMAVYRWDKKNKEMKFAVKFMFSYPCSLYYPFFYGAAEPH
Kind of assay: fluorescence size-exclusion chromatography (FSEC).

The target of the next assay is T4, hsFRP2 (human, UniProt Q96HF1 25-295).
T4 construct: bought (R&D Systems); also called human sFRP2
T4 sequence (looked up): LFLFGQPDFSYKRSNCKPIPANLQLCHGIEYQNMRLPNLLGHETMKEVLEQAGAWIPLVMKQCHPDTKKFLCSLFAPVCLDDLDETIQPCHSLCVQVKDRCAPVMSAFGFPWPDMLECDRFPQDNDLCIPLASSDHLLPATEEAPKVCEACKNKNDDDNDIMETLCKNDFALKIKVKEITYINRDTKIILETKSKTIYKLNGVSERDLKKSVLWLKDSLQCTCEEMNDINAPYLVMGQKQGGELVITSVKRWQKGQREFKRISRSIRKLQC
Kind of assay: fluorescence size-exclusion chromatography (FSEC).

The target in the next assay is T5, hsFRP1 (human, UniProt Q8N474 32-314).
T5 construct: bought (R&D Systems); also called human sFRP1
T5 sequence (looked up): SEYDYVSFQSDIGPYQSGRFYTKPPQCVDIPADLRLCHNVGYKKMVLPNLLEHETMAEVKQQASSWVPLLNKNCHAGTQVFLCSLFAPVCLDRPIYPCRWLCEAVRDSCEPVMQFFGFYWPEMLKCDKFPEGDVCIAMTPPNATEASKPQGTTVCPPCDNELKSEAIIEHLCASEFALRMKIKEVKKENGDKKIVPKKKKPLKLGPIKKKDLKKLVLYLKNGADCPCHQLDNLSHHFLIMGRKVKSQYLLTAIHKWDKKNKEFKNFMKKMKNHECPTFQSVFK
Kind of assay: fluorescence size-exclusion chromatography (FSEC).

The target of a further assay is T6, hFZD5 CRD-Fc (human, UniProt Q13467 27-167, limits assumed).
T6 construct: domain: CRD; bought (R&D Systems); not shown: Fc part
T6 sequence (looked up): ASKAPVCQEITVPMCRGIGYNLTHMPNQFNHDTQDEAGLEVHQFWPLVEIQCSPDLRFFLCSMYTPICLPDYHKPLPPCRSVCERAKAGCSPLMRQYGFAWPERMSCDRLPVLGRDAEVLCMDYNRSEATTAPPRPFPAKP
Kind of assay: fluorescence titration, 50 nM labelled peptide vs FZD CRD-Fc dilutions (Monolith NT.115); NC = no change.

Another assay concerns the target hFZD7 CRD-Fc (human, UniProt O75084 33-185). The description is as above.
The next assay concerns the target T7, mFZD2 CRD-Fc (mouse, UniProt Q9JIP6 29-178, limits assumed).
T7 construct: domain: CRD; bought (R&D Systems); not shown: Fc part
The description is as above.

In the next assay the target is T8, hFZD8 CRD-Fc (human, UniProt Q9H461 28-158, limits assumed).
T8 construct: domain: CRD; bought (R&D Systems); not shown: Fc part
T8 sequence (looked up): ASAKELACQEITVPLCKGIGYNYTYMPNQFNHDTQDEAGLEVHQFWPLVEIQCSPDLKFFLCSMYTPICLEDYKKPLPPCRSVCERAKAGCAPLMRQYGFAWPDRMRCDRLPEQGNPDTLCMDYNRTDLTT
The assay is described as above.

The next assay deals with T9, mFZD9 CRD-Fc (mouse, UniProt Q9R216 24-176, limits assumed).
T9 construct: domain: CRD; bought (R&D Systems); not shown: Fc part
T9 sequence (looked up): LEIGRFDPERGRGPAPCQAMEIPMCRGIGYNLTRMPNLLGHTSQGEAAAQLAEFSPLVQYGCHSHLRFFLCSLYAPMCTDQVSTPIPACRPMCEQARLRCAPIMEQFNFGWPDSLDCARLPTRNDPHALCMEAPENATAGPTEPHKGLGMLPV
The description is as above.

Another assay has as its target T10, hFZD10 CRD-Fc (human, UniProt Q9ULW2 21-161, limits assumed).
T10 construct: domain: CRD; bought (R&D Systems); not shown: Fc part
T10 sequence (looked up): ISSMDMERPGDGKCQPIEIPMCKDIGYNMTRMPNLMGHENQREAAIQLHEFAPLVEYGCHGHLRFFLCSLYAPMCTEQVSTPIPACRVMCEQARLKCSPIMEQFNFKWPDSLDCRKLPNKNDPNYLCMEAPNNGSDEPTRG
Described as above.

A further assay addresses T11, hFZD4 CRD-Fc (human, UniProt Q9ULV1 37-180, limits assumed).
T11 construct: domain: CRD; bought (R&D Systems); not shown: Fc part
T11 sequence (looked up): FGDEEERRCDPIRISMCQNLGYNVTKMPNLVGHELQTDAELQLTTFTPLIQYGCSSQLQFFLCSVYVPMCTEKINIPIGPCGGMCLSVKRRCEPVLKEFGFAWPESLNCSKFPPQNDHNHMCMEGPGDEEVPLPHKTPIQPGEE
The assay is described as above.

The next assay concerns the target mFZD7 CRD-Fc (mouse, UniProt Q61090 33-185). Described as above.

LPSDDLEFWSHVMY-NH2 (also: 5-carboxyfluorescein (5FAM) label, site not given here, synthetic control peptide (C10S)) [5FAM-Fz7-21S]: the binding result in the assay with hsFRP-3 is listed as “no binding (tested: 10 µM peptide, ~250 nM sFRP)”; in the assay with hsFRP-4 it was “no binding (tested: 10 µM peptide, ~250 nM sFRP)”; with hsFRP-5 it was “no binding (tested: 10 µM peptide, ~250 nM sFRP)”; with hsFRP2, “no binding (tested: 10 µM peptide, ~250 nM sFRP)”; with hsFRP1, “no binding (tested: 10 µM peptide, ~250 nM sFRP)”; with hFZD5 CRD-Fc, “no binding”. Besides, the binding result with hFZD7 CRD-Fc, with mFZD2 CRD-Fc, with hFZD8 CRD-Fc, in the assay with mFZD9 CRD-Fc, in the assay with hFZD10 CRD-Fc and in the assay with hFZD4 CRD-Fc was “no binding” throughout. The binding result with mFZD7 CRD-Fc is recorded as “no binding”.
